Reference: patent publication US20220341931A1

Target: Influenza A [A/Hawaii/70/2019 (H1N1)pdm09-like virus] Hemagglutinin (HA), His-Tag (Native Antigen Co (Influenza A [A/Hawaii/70/2019 (H1N1)pdm09-like virus]))

SARS-CoV-2 (2019-nCoV) Nucleocapsid Antibody, Rabbit MAb (Sino Biological Cat: 40143-R019)
barcode sequence counts (FLU A): 2000 counts
